Assay results: patent US11618906B2, “Hydroxylation techniques” (HYPHA DISCOVERY LTD., priority 2018, dated 2023)

Key:
Assay type in all cases: biochemical
[1] = Hydroxylation of diclofenac catalysed by cytochrome P450 aluC09 and mutants (UPLC-PDA-MS)
Summary of the method: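 Conversion of diclofenac (0.125 mg/ml) to hydroxy metabolites measured by UPLC with UV and MS detection, identities confirmed by authentic samples. Reactions used P450 aluC09 variants with ferredoxin aluF03, reductase SCF15A and an NADP/G6P/G6PDH recycling system, pH 7.4 phosphate, 27° C, 16-20 hours.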

[2] = Hydroxylation of flufenamic acid catalysed by cytochrome P450 aluC09 and mutants
Summary of the method: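 Conversion measured by UPLC-MS (UV and MS) after acetonitrile extraction, following 16-20 h shaking at 27° C. Reaction: 0.125 mg/ml substrate, P450 mutant plus ferredoxin aluF03 and reductase SCF15A, 5 mM G6P, 1 mM NADP, 2 U/ml G6PDH, pH 7.4 phosphate with 5 mM MgCl2.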

[3] = Hydroxylation of aceclofenac catalysed by cytochrome P450 aluC09 and mutants
Summary of the method: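 Conversion was assessed by UPLC-MS (UV and MS detection) after acetonitrile extraction of reactions run 16-20 h at 27° C, shaking. Reactions contained substrate at 0.125 mg/ml, P450 mutant plus ferredoxin and reductase partners, 1 mM NADP with glucose-6-phosphate regeneration, in phosphate buffer pH 7.4.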

[4] = Hydroxylation / de-N-ethylation of napropamide catalysed by cytochrome P450 aluC09 and mutants
Summary of the method: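 Conversion of napropamide (0.125 mg/ml) to hydroxylated and de-ethylated metabolites was measured by UPLC-MS after acetonitrile extraction. Reactions ran 16-20 h at 27° C in pH 7.4 potassium phosphate (50 mM) with 5 mM MgCl2, 1 mM NADP, 5 mM G6P and 2 UN/ml G6PDH. Enzymes were lyophilised P450 aluC09 variants, ferredoxin aluF03 and ferredoxin reductase SCF15A.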

[5] = O-demethylation of indomethacin catalysed by cytochrome P450 aluC09 and mutants; conditions: % by UV peak area at 275 nm; 0.125 mg/ml substrate, 27° C., 16-20 hours
Summary of the method: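 Conversion was quantified by UPLC-UV/MS after acetonitrile extraction of 16-20 h, 27° C. shaken reactions. These contained 0.125 mg/ml substrate, mutant P450 with partner ferredoxin and reductase, 1 mM NADP plus 5 mM G6P and 2 U/ml G6PDH, in pH 7.4 phosphate with 5 mM MgCl2.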

[6] = Metabolism of ritonavir by P450 aluC09 and mutants; conditions: percent of substrate being converted; 0.125 mg/ml, 27° C., 16-20 hours; [CYP] per enzyme as in Table 8
Summary of the method: (§1)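 In these assays each P450 aluC09 mutant, supported by ferredoxin and ferredoxin reductase, turns over substrate (0.125 mg/ml) in 50 mM potassium phosphate pH 7.4 containing 5 mM MgCl2 and an NADP/G6P/G6PDH regeneration system. Incubation lasts 16-20 hours at 27° C with shaking, and acetonitrile-extracted samples are analysed for conversion by UPLC-MS.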

[7] = Metabolism of celecoxib by P450 aluC09 and mutants; conditions: percent of substrate being converted; 0.125 mg/ml, 27° C., 16-20 hours; [CYP] per enzyme as in Table 8
Summary of the method: as §1

[8] = Metabolism of epothilone B by P450 aluC09 and mutants; conditions: percent of substrate being converted; 0.125 mg/ml, 27° C., 16-20 hours; [CYP] per enzyme as in Table 8
Summary of the method: as §1

[9] = Metabolism of buparvaquone by P450 aluC09 and mutants; conditions: percent of substrate being converted; 0.125 mg/ml, 27° C., 16-20 hours; [CYP] per enzyme as in Table 8
Summary of the method: as §1

[10] = Metabolism of BIRB796 by P450 aluC09 and mutants; conditions: percent of substrate being converted; 0.125 mg/ml, 27° C., 16-20 hours; [CYP] per enzyme as in Table 8
Summary of the method: as §1

[11] = Metabolism of bosentan by P450 aluC09 and mutants; conditions: percent of substrate being converted; 0.125 mg/ml, 27° C., 16-20 hours; [CYP] per enzyme as in Table 8
Summary of the method: as §1

[12] = Metabolism of valsartan by P450 aluC09 and mutants; conditions: percent of substrate being converted; 0.125 mg/ml, 27° C., 16-20 hours; [CYP] per enzyme as in Table 8
Summary of the method: as §1

[13] = Metabolism of ruxolitinib by P450 aluC09 and mutants; conditions: percent of substrate being converted; 0.125 mg/ml, 27° C., 16-20 hours; [CYP] per enzyme as in Table 8
Summary of the method: as §1

[14] = Metabolism of 4-pyrrolidylacetophenone by P450 aluC09 and mutants; conditions: percent of substrate being converted; 0.125 mg/ml, 27° C., 16-20 hours; [CYP] per enzyme as in Table 8
Summary of the method: as §1

[15] = Metabolism of tivantinib by P450 aluC09 and mutants; conditions: percent of substrate being converted; 0.125 mg/ml, 27° C., 16-20 hours; [CYP] per enzyme as in Table 8
Summary of the method: as §1

[16] = Metabolism of tofacitinib by P450 aluC09 and mutants; conditions: percent of substrate being converted; 0.125 mg/ml, 27° C., 16-20 hours; [CYP] per enzyme as in Table 8
Summary of the method: as §1

[17] = % by UV peak area at 275 nm, 0.125 mg/ml substrate, 27° C., 16-20 hours

B1: aluC09M17: cytochrome P450 aluC09 mutant T291N; amino acid sequence SEQ ID NO: 16 (protein, listed as Amycolatopsis lurida)
chain: MTDVEETTATLPLARKCPFSPPPEYERLRRESPVSRVGLPSGQTAWALTRLEDIREMLSSPHFSSDRQSPSFPLMVARQIRREDKPFRPSLIAMDPPEHSRARRDVVGEFTVKRMKALQPRIQQIVDEHLDALLAGPKPADLVQALSLPVPSLVICELLGVPYSDHEFFQSCSSRMLSREVTAEERMTAFEQLENYLDELVTKKEANATEDDLLGRQILKQRETGEADHGELVGLAFLLLIAGHETTANMISLGTVTLLENPDQLAKIKADPGKTLAAIEELLRVFTIAENATSRFATADVEIGGTLIRAGEGVVGLSNAGNHDPDGFENPDTFDIERGARHHVAFGFGVHQCLGQNLARLELQIVFDTLFRRVPGLRIAVPVDELPFKHDSTIYGLHALPVTW
[1]; [17]
  4′,5-dihydroxy-diclofenac 1.38 mins: 3.2%
  4′-hydroxy-diclofenac (1) 1.62 mins: 44.8%
  5-hydroxy-diclofenac (2) 1.58 mins: 21.8%
  Diclofenac (Substrate) 1.81 mins: 32.3%
[1]; diclofenac, ratio of UV peak areas at 275nm
  Hydroxylated Ratio hydroxy 1:hydroxy 2: 2.1
[2]; [17]
  Flufenamic Acid (Substrate) 1.93 mins: 94.4%
  Hydroxy-Flufenamic Acid (1) 1.69 mins: 3.4%
  Hydroxy-Flufenamic Acid (2) 1.65 mins: 2.2%
[2]; flufenamic acid, ratio of UV peak areas at 275 nm
  Hydroxylated Ratio 1:2: 1.6
[3]; [17]
  Aceclofenac (Substrate) (1.80 mins): 9.2%
  Dihydroxy-Aceclofenac (1.42 mins): 43.2%
  Hydroxy-Aceclofenac (1) (1.64 min): 6.9%
  Hydroxy-Aceclofenac (2) (1.60 min): 40.8%
[3]; aceclofenac, ratio of UV peak areas at 275 nm
  Hydroxylated Ratio 2:1: 5.9
[4]; [17]
  Desethyl Napropamide (1.62 min): 53.7%
  Desethyl-hydroxy-Napropamide (1.41 min): 10.6%
  Hydroxy-Napropamide (1) (1.53 min): 0.9%
  Hydroxy-Napropamide (2), (1.52 min): 3.1%
  M-2Da (unidentified) (1.89 min): 6.0%
  Napropamide (substrate): 28.7%
[4]; napropamide, ratio of UV peak areas
  Hydroxylated Ratio 2:1: 3.4
[5]
  Indomethacin (1.74 mins): 84.4%
  O-demethyl-Indomethacin (1.52 mins): 15.6%
[6]
  % conversions (avg) Ritonavir: 51.7%
[7]
  % conversions (avg) Celecoxib: 8.1%
[8]
  % conversions (avg) Epothilone B: 16.8%
[9]
  % conversions (avg) Buparvaquone: 17.9%
[10]
  % conversions (avg) BIRB796: 23.2%
[11]
  % conversions (avg) Bosentan: 100%
[12]
  % conversions (avg) Valsartan: 21.9%
[13]
  % conversions (avg) Ruxolitinib: 33.9%
[14]
  % conversions (avg) 4-pyrrolidylacetophenone: 21.7%
[15]
  % conversions (avg) Tivantinib: 53.9%
[16]
  % conversions (avg) Tofacitinib: 4.4%
